According to US20220073599A1 (Hoffmann-La Roche, published 2022):
Substitutions are numbered along the chain they refer to.

T1: ANG2 (human, UniProt O15123 19-496, limits assumed)
T1 sequence: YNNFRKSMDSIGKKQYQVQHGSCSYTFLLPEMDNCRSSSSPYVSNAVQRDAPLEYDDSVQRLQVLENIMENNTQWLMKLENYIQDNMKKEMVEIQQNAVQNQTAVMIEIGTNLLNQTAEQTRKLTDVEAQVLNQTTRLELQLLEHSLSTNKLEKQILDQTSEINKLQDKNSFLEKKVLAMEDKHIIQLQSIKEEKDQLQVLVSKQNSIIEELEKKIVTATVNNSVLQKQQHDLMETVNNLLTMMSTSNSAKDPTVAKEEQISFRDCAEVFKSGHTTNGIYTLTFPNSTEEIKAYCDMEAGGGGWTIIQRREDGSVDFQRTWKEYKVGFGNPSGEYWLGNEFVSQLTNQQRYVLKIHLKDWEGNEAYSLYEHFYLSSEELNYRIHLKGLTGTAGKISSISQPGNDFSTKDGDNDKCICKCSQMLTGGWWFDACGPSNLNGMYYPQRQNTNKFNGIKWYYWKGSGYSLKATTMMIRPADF

T2: human VEGFA-121 (human, UniProt P15692 181-395)
T2 sequence: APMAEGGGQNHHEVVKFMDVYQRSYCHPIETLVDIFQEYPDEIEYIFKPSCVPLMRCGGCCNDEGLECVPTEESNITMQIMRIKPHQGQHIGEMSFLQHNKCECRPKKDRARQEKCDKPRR

T3: human Ang2-RBD (human, UniProt O15123 275-496, limits assumed)
T3 construct: also called Human ANG2 (SPR); Angiopoietin 2-RBD
T3 sequence: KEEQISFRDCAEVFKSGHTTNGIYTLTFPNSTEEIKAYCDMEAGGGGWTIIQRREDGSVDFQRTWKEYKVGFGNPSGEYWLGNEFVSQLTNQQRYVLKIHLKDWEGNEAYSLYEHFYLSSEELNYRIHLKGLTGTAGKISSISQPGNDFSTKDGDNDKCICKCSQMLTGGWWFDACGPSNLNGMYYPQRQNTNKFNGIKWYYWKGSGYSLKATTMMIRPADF

T4: human VEGFA-121-His (human, UniProt P15692 181-395)
T4 construct: Prepared in-house; not shown: His tag
T4 sequence: T2 sequence

B1: bispecific anti-VEGF-A/anti-ANG2 Fab fragment P1AA0902 (Fab, V domains shown)
VH: DDHLVESGGGLVKPGGSLRLSCATADFFEYDDMSWVRQAPGKGLEWVGSISGRGDHKYLNTKFIGRFTISRDDSKNTLYLQMNSLRAEDTAVYYCARDVGFFDWWGQGTLVTVSS
VL: AIYMHQEPSSLSASVGDRVTITCHGSYWLNSELAWYQQKPGKAPKLLIFDGDFKVFDVPSRFSGSGSHEDYTLTISSLQPEDFATYYCQQYRYHPYTFGHGTKVEIKR
notes: Bispecific Fab with two paratopes in one VH/VL pair
B2: bispecific anti-VEGF-A/anti-ANG2 Fab fragment P1AA8906 (Fab, V domains shown)
VH: DFQLVESGGGLVKPGGSLRLSCAASYEFEYDDMSWVRQAPGKGLEWVGSISPKGGSTYYNTKFIGRFTISRDNSKNTLYLQMNSLRAEDTAVYYCARDVGFFDMWGQGTLVTVSS
VL: B1 VL with N30S, S31N, E32Y, G51A, D52R, F53W, K54L, F56H, D57G
notes: Bispecific Fab with two paratopes in one VH/VL pair (DutaFab); CH1 and Ckappa
B3: bispecific anti-VEGF-A/anti-ANG2 Fab fragment P1AD9820 (Fab, V domains shown)
VH: B1 VH with D1S, D2E, G52P, R53K
VL: B1 VL with L33V, F56Y, D57E
notes: Bispecific Fab with two paratopes in one VH/VL pair; also called P1AD9820 Fab

Tests used:
[1] = biological target: T1, ANG2; assay: cell-based or functional assay
[2] = biological target: T2, human VEGFA-121; assay: cell-based or functional assay
[3] = biological target: T3, human Ang2-RBD; assay: SPR, Fab captured by anti-Fab antibody, Ang2-RBD injected, 25 C, 1:1 fit
Method: An anti-Fab capturing antibody (GE Healthcare 28958325) was immobilized to a Series S Sensor Chip C1 (GE Healthcare BR100535) using standard amine coupling chemistry resulting in a surface density of approximately 800 resonance units (RU). As running and dilution buffer, HBS-P+ (10 mM HEPES, 150 mM NaCl pH 7.4, 0.05% Surfactant P20) was used, the temperature of measurement was 25° C. The tested antibody was captured by injecting a 50 nM solution for 60 sec at a flow of 5 μl/min. Association was measured by injection of human Ang2-RBD in various concentrations in solution for 180 sec at a flow of 30 μl/min (0.07 nM-50 nM, 1:3 dilution). The dissociation phase was monitored for up to 900 sec and triggered by switching from the sample solution to running buffer at a flow rate of 30 μl/min. The surface was regenerated by injection of 10 mM Glycine pH 2.1 for 60 s at a flow rate of 30 μl/min. Bulk refractive index differences were corrected by subtracting blank injections and by subtracting the response obtained from the reference flow cell without captured tested antibody. Curve fitting was performed using the 1:1 Langmuir binding model within the Biacore® evaluation software.
(§1) Binding kinetics to human VEGF-A and human ANG2 for the candidate antibodies were assessed as described above using the indicated Fab fragments (amino acid sequence as illustrated in Table 4).

[4] = biological target: T4, human VEGFA-121-His; assay: SPR, VEGF-A121-His captured by anti-His antibody, Fab injected, single cycle kinetics
Method: (§2) An anti-His capturing antibody (GE Healthcare 28995056) was immobilized to a Series S Sensor Chip C1 (GE Healthcare BR100535) using standard amine coupling chemistry resulting in a surface density of approximately 600 resonance units (RU). As running and dilution buffer, HBS-P+ (10 mM HEPES, 150 mM NaCl pH 7.4, 0.05% Surfactant P20) was used. […] A dilution series of the tested antibody (3.7-300 nM, 1:3 dilution) was successively injected for 60 s each, dissociation was monitored for 3600 s at a flow rate of 30 μl/min (single cycle kinetics). The surface was regenerated by injecting 10 mM Glycine pH 1.5 for 60 s at a flow of 5 μl/min. […] Curve fitting was performed using the 1:1 Langmuir binding model within the Biacore® evaluation software.
as §1

[5] = biological target: T4, human VEGFA-121-His; assay: SPR, VEGF-A121-His captured by anti-His antibody, Fab injected, single cycle kinetics, 1:1 fit
Method: as §2, §1

[6] = biological target: T3, human Ang2-RBD; assay: SPR, Fab captured by anti-Fab antibody; 2) Ang2-RBD alone, then buffer; final signal in % of the sum of the single signals
Method: (§3) The bispecific Fab was captured by injecting a 6.5 μg/ml solution for 60 sec at a flow of 5 μl/min. Independent binding of each ligand to the bispecific Fab was analysed by determining the active binding capacity for each ligand, either added sequentially or simultaneously (flow of 10 μl/min): [0359] […] [0360] 2) Injection of human Ang2 with a concentration of 5 μg/ml for 60 sec (identifies single binding of the antigen) [0361] […] [0362] […] [0363]
(§4) Independent binding of candidate antibodies to human VEGF-A and human ANG2 was analysed by SPR as described above in the “Materials & general methods” section.

[7] = biological target: T4, human VEGFA-121-His; assay: SPR, VEGF-A121-His captured by anti-His antibody, Fab injected, single cycle kinetics; marked outside of Biacore specification
Method: as §2, §1

[8] = biological target: T2, human VEGFA-121; assay: SPR, Fab captured by anti-Fab antibody; 4) Ang2-RBD first, then VEGFA-121 (binding of VEGFA-121 in the presence of Ang2); final combined signal of both antigens
Method: as §3, §4

Binder | IC50, pTie2-Assay (Tie2 phosphorylation in Hek293 cells expressing Tie2, stimulated with Ang-2) [1] [nM] | IC50, Reporter Gene Assay (Hek_NFAT_KDR_Luc cells stimulated with VEGF-A121, luminescence) [2] [pM] | Kd [3] [pM] | koff [3] [s⁻¹] | kon [3] [M⁻¹ s⁻¹] | t1/2 [4] [h] | kon [5] [M⁻¹ s⁻¹] | Signal [%] [6] [%] | Kd [7] [pM] | koff [7] [s⁻¹] | Signal [%] [8] [%]
B1 | 7 | 1090 | 19 | 0.000106 | 5.51e+06 | 23.3 | 737000 | 50 | 11 | 8.27e-06 | 90
B2 |  |  | 4550 | 0.032 | 7.03e+06 | 42.5 | 1.66e+06 | 50 | 3 | 4.53e-06 | 91
B3 | 10 | 1070 | 8 | 5.78e-05 | 7.43e+06 | 33.1 | 727000 | 50 | 8 |  | 92
